Results taken from a protein production outcome set (Wang et al. 2014).

assay: label from the status in PepcDB records
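Also: failed if final PepcDB status was selected cloned or expressed and not failed if soluble or beyond.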

Row | Sequence | protein production
1 | MSDVEDVPETQLEIDVSDGAGLEDEDDDDMEQITAQKVLEIIETAWINEMCAPEILPSQTDMLELMVSQVAHMEEQMRDLDKNDFRAVVHSMELERVRYIMASYLRCRLQKIETFTQHILNQEESREPDDKRLSPEETKFAQEFASNVDEYFHKVATQYMPNQQRGEAEQRIVTPNLMSHVFLKANVAVPAVIVGVDDEEVDMAAGSQHIIPYQLVADLIQNNQAQLI | failed
2 | MSDVIQLAYFAVAVVFILGLKAMSSPVSARKGIVWAGYAMVAATLITLLKPGMENYGLMITAIVLGGAVAWWSGKVVKMTDMPQMVAIYNGMGSGAAAAIAALEFARGSMHGGFAATLAVLGALIGSVAFSGSCIAFAKLQGIMTKAWRLPAQNVVNVALAGIALVLGGAIIFGSTPASEMVIAFFVVALALGAILTSPIGGADMPVVISLLNAFTGLAVGFEGYVLGNPALIVAGIVVGASGTLLTQLMAKAMNRPIKNIIFTPITGAAAGGGEAIGGSMKELSALDGASVMRYASKVIIVPGYGMAVAGAQHKVWEMAQLLEEGGVEVVFAIHPVAGRMPGHMNVLLAEAGVPYDKIFDLEEINADFPQADVALVIGANDVVNPVARTDKSSPIYGMPILNVDMAQNVIVVKRGQGAGYSGIENALFFKDNCRMLYGSAQQIIGEVITHVKALEV | failed
3 | MSDVRTNEAEKRHAHPDFDAARFPADARVRVLARRFPPYHRDSPCLAILDRFLHDPTLSAAAVVDDAMRPVGLIDRYSLVEQFLHPYSRDLYHKHSIAAFMDPEPVIVEADSSIDDLSRIIIDAGMRHMVSGFIVTEDGLYLGIGSGHDLFEEVANRKQNHLYHLAHYDPLTSLPNRLLLNDRLKRACLRGQRGGYRIALLFIDLDRFKLVNDTLGHAAGDQLLQGVAGRFAACVRKVDTVARLGGDEFTVLLEPVQGPDEALAVAAKLAQSLERPFLIQNHEITTSASIGVVLFPEHDATVEGLMRKADAAMYCAKREGRNRFALFTEEMNSTVVERVTLESYLNAALEKGEFCCHFQPQMATADDRIVGVEALLRWTNPVLGRVPPLKFIPVAEDTGLILPLGLWALETACAQQVRWLSQGLPPLRMAVNISPLQFRNREFCDQVRAIVQRTGIRAEHLELELTESAVMADAESSVGILRELRDSGIRLAIDDFGTGYSSLSYLRKFPLDRLKIDRSFVSGIDRIPANELIVKAIVALGGSLGLDVIAEGVETPEELECIERCGCSEYQGFRLSEPLTAEDFAHWFEDSGYV | failed
4 | MSDYLDMLASFGVSSAHPGGMSLSKAVLAKAGIDPEQPILDAGCGTGQTAAYLGQLLFPVTALDADPVMIDKARQRFKKEQLSIPAVRSPLEEMPFQSESFACVLTESVLSFTNIRSALQEIRRILKPGGMLVAIEVCLKEGNALTDEAKKEITEFYGFTALYDEDEWVNVLREEGFSKIDIIPVVLEDAGDPDDAVEMDLSPAISDKDYETMEKHLHYLEKYRDSLDHIIFISHL | failed
5 | MSEAKELIKKMCDLQNSNEEIQKEMAGWSGVVQYKLDGYYFYVEYKSDGTCEFKEGVHSSPTFTVVAPPDFWLAVLKGQEDPVSGFMMGKYRIEGNIMEAQRLAGVIKKFQGKFEL | not failed
6 | MSEALELLGQDIVARAPGVLGHSVAFGELTIVARAASVIDTLTFLRDDAACRFHQLIDLTGVDYPERAARFDVVYHLLSLVKNHRIRLKVSTDEDTPVPSVTPVFPVADWFEREAFDMYGIFFDGHPDLRRILTDYGFHGHPLRKDFPMTGYVEVRYDDELKRVVYEPVKITEFRAFDFLSPWEGAKYALPGDEKAQ | failed
7 | MSEDEAQFHGNYDDYVTYLKRRIRQLELQVRMLEADKERLERELSRLRSEMSRLRQPPAFAGSVIEVLDDDRAIVQNYNGPRFVVRIAPWIDKSKLRPGTRVALDQRTMAIIEILPASKDPAVLGFEVVERPN | failed
8 | MSEDRSSNGQKSWLGKLTQAFVHEPKNRQELLELLREAHQNKLLDSEALAIVEGAIQVADLQVRDIMVPRSQMISIKATQTPREFLPAVIDAAHSRYPVIGESHDDVLGVLLAKDLLPLILKADGDSDDVKKLLRPATFVPESKRLNVLLREFRANHNHMAIVIDEYGGVAGLVTIEDVLEQIVGDIEDEHDVEEDSYIKPLPSGDFLVKALTPVENFNEFFDSAFSDDEFDTVGGLVMNAFGHLPKRNEITEIGAYRFRILSADSRRIHLLRVTPISRP | failed
9 | MSEEKNTAIDLKNLKAGGFIKERGKDLFTVRLRVPGGRLPVGRLKKIAEVAEKYGQGMVHLSVRQSVELININFRDFDAVVAELGEGTQKVASCGARVRVPTACGGCEYNPNGLVDTQKSALEVDEKLFGIPTGHHKFKVGFAGCPFDCPKSATNDVGFQGAVWPVLSADHCIGCGLCAKSCTEDAIAMGDNGKPLFIPANCLYCGDCLKVCPTEAWRAGKKGYTVRIGGKWGRRPLVGTLFAEFLPEDQVVDFIAAVLGWYQEKAEGQGRIRLGDVIRAQGPEALLARLRERFPAFVVNATIAPQAIATQVGKEKQAHDNRLEHHHHHH | not failed
10 | MSEGNRSRSRLLPSLLGLLILLSGLALLAGGIKLASLGGSLYYLLAGIGLALSGLLLLLGKRAALGLYALVLFASTVWALWEVGLDWWQLVPRLALWFVFGLLLWLPWFRRPLLADGPAPLGTAALGVAVVLAGAAAVGSQFTNPGQIVGRIDRDSGMTSTAPAMPDGDWQAYGRTEFGDRYSPLKQITPANVGQLEEAWRIRTGDLPTADDPLELTNENTPLKVNGMLYACTAHSKVLALDPDTGAEIWRFDPQIQSPVGFKGFAHMTCRGVSYYDEEQYARSDVGAPPAALSEAGKAVAASCPRRLFLPTADARLIAINADNGKVCEDFGVKGAVDLTAGIGPFTPGGYYSTSPAAVTRNLVIIGGHVTDNESTNEPSGVIRAFDVHDGKLVWNWDSGNPDETEPLAPGKFYTRNSPNMWSLASVDEKLGQVYLPLGNQMPDQWGGNRTPGAEKFSAGLVALDLNTGKLRWNYQFTHHDLWDMDVGSQPTLLDLKTADGVKPALIAPTKQGSLYVLDRRDGTPIVPIREVPAPQGAVEGDHTAPTQARSDLNLLRPPLTERDMWGSSPFDQMLCRIQFRSLRYEGQYTPPSEQGSLIYPGNVGVFNWGGVSVDPVRQILFTSPNYMAFVSQMVPRDKVPSGSKREGETSGVQPNTGAPYAVIMHPFMSPIGLPCQAPSWGDVAGIDLTTAKVVWQHKNGTSRDNTPVPIGLTVGVPSMGGSITTAGGVAFLSGTLDQYLRAYDVKDGKQLWQARLPAGGQATPMSYTGKDGRQYVLIVAGGHGSFGTRMGDYIIAYALPRQ | failed
11 | MSEGTLFVFTCDRPNGSSVIMCPGGGFLKTNLENEGIDFAEWFTKLGITYIVFKYRMPHGNPDVPEQDTRLALKVVREKFPEFCDKLGVMGASIGGYLATFSATLLPDDEKPDFQILMYPVVSVDDRLTHFPCRERMFGHSYSPDKMEQYSPIEHITSGTPAAFIVAAADDAVVSPLNGIMYAARLQKADIPISLHIYPAGGHGFGYNDSFVYKQEWLQELGEWLAKLLEHHHHHH | failed
12 | MSEKPLISVLMPNYNSEKYLNEAIESILNQTYENFEFIILDDCSTDNSWKIIQEYAKKDKRINIFRNEKNLGRPKTYNRLLNMISNESFFFFFMGSDDVVKENMINIKLNYFNNFEEIDGIGNSIEYVDENLNFIKKREYPLTDRDIRKNFLIFNPISQGGMCLKSNLKNETFNEKYKVCLDYEIWTRLIDKGYTFENLKESLYLYRQQREQAKQKNLKMTLVNTVKIKSKYLFRPQYFSINAFLRFNLEILLLMLPKKLILWVFYKSL | failed
13 | MSELNLSPDKLTVLLMGGSFGAGNIKETLDELLDTDRDFQILVITGKNESLKEKIEKKLMSRYHDKNVCVLGYTDKMNDILASIDVLVSKPGGLTTTEALLKDVPMIVPYYIPGQEEENLDFLSNCGAALRTTKKYNLSILLKVLIDDPSRLEMLKRNIKSIRKSNSAQNIANLILNIISGLEHHHHHH | failed
14 | MSEMAGDSSTSEDKIHKPNRERNVSGELDVFEATRYFSDFNEPTTIEYSRIQIQKQSIVTENRQKRVHPETEEHLPKPRVVVIKPQKKEMTRGGGKKLTSFLNSLLRSAGLKKKSKSAPEVETPRVERMRRKSCVVTTHAADASPLTNAGAWSLNARRRSFDEKDLKKSDQKLNIRFCESLYSDQRVETKDPNAGDKNDVIGGCESDSSSESDLFELDLFAKSNP | failed
15 | MSEPIPPFRYAPIVCSEQSTIVAEFVPEASGVREAGYQSEAELEAAFIKQLQGQAYEYLPITSEAALLANLRRQLEKLNKVTLSDAEWEGFFSTCIAGAHDGIVEKTARIQENHVQVLKRDDGTIKNMCLLDKVNIHNNTLQVMNQYAVEGARANRYDVTVLVNGLPMVHVELKRRGVDIREAFNQINRYQRDSFWAGSGLLDYVQLFVISNGTLTKYYSNTVRAGHVEEQSNKRSKSKTSNSFSFAIWWADAKNQPITELTSFTKTFFAKHSLLNVLTKYCVFNAKRKLLVMRPYQIVAAERILQRIVIATHQQQLGTVAAGGYIWHTTGSGKTLTSFKVAQLACGLGVIDKVLFVVDRKDLDYQTMREYESFQKGAANSNTSTAVLQRQLEDSDVHIIITTIQKLSRFVAKHKQHPVYGAHVVVIFDECHRSQFGDMHTKITRAFQRYHLFGFTGTPIFAENAGSTQNPMRRTTQQTFGDTLHTYTIVDAINDKTVLPFRIDYINTIKSQPNIKDKKVAAIDTERALLAPERIRQIVSYIREHFDQKTKRASIYRHEGQRLAGFNSLLATASIDAAKRYYAELMAQQKELPEARRLKVGLIYSVAANEGGGDGGLGEEEFETEGLDQESRNFLEAAIQDYNALFGTSFDTSADKFQNYYKDVSERLKKRKLDILIVVNMFLTGFDATTLNTLWVDKPLKAHGLIQAYSRTNRILNSVKSYGNIVSFRNLEQETNEALALFGNKDAKGIVLLRPYAEYYKQYEERVGELMAAFPLGKAIVGEAAQKAFITLFGSILRLKNILTAFDDFGGQEILTEREFQDYQSLYLNLYAEFRSASAAEKESINDDVVFEIELIKQVEINVDFILLLVEQYVKKKGTGEDKDIRATIERAIHSSPSLRNKKELIEQFVDAVSMKAKVDAQWQAFVAVKQSQELEGIIAEENLNAEAAREFIGNAFRDGGIPAMGTAITKVLPPVSRFSKNNGHAAKKQAVLDKFATFFERYFGLV | failed
16 | MSEQTSQYLSDSYVEETRFGFWFLRSHTWQHHVLRVAINDLRSLFDGELPRHPVLLDAGCGQGKSFQYLRQVFAPQRLIGLDADPHSLKLSAEEARRQQMQVELIGSDCATLELADASVDLLFCHQTFHHLVEQEKALAEFYRVLKPGGYLLFAESTEAYIDTWVIRWLFRHPMHVQKSAAQYLQMIRQQGFEFGPQNVSYPYLWWSRAKDFGLLERFGLRQPPPVGQREETLVNVVARKPLNPTVVEEGLPA | failed
17 | MSESKEMVRGTFLITISILITKVLGVLFIIPFTALIGGQANMAPFTYAYAPYNIAIAIATAGVPLAASKYVAKYNALGAYKVSQKFYKSSFVVMSITGIVGFLVLYLLAPYIAELTLSRNTHGNNGWTVADITWIIRIISMVVIFIPVLATWRGIFQGYKSMGPTAVSEVTEQIARIVFILVGSYLTLNVFGGTVLQANGIATFAAAIGAIAGILTLWYYWIKRRKNIKKMIDSDTANLNVSYGKMYKEIIAYSIPFVIVSLNFPLFNLVDQFTHNGALNLVGVKPGLQDIFFNMLNMSTNKIVMIPTSLSAGFAVSLIPFITKTYEEGRYAEMHRQIRTSIGVLMFITVPASIGIMALAQPLFTVFYGFDPVVHGHDPNFDGSRLLFYYAPVAILISLLSVTASMLQGIDKQKLTVFIILGSVLIKLILNYPLIMLLHTPGAVLSTAIALLFAICCNFYILKKYANFKFSYSWIHLAKIILISIIMMIGVEVIFFILRLFLEPTRFNYLIIVAIGVIVGAIIYGGITIKTKLADEFLGDIPAKIRRKVKMLR | failed
